{"source": "patent US20130115676", "assay_in_all_cases": "cleavage_in_vitro", "key": {"[1]": {"molecular_target": "T1, PstI (Providencia stuartii 164) (UniProt P00640)", "T1 sequence": "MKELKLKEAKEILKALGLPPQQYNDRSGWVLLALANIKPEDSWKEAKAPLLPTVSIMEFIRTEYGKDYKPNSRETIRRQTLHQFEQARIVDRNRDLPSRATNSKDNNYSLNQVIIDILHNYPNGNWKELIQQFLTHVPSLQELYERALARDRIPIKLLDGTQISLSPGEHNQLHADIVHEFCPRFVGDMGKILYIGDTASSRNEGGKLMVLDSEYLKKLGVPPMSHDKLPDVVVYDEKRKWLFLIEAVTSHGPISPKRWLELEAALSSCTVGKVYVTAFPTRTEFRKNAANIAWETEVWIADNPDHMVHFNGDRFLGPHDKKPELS", "conditions": "NEB3, 10 mM MgCl2, 37 C"}, "[2]": {"molecular_target": "EcoRI-HF K62E (Escherichia coli RY13) (UniProt P00642)", "conditions": "NEB4, 10 mM Mg acetate, 37 C"}, "[3]": {"tested_on": "T2, SphI-HF K100A (Streptomyces phaeochromogenes)", "T2 sequence": "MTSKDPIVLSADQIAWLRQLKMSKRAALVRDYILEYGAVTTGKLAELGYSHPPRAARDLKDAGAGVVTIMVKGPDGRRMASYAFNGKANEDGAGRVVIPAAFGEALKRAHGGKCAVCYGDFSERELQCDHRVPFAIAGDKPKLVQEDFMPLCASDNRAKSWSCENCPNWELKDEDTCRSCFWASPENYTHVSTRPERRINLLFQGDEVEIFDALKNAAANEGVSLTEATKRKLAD", "conditions": "NEB4, 10 mM Mg acetate, 37 C"}, "[4]": {"tested_on": "T3, BspQI (Bacillus sphaericus)", "T3 sequence": "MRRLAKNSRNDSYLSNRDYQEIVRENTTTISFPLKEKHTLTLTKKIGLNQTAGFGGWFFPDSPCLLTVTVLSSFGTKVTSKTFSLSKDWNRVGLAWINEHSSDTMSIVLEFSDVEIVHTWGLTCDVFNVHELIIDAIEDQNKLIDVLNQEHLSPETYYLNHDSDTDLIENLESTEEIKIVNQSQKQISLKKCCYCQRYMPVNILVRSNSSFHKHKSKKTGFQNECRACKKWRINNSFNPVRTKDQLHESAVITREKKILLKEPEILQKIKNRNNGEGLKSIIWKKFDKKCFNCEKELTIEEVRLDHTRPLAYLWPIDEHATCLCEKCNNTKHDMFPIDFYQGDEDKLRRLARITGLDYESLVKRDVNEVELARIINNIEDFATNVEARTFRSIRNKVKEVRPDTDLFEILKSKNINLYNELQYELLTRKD", "conditions": "NEB3, 10 mM MgCl2, 50 C"}, "[5]": {"molecular_target": "T4, BamHI-HF E163A/E167T (Bacillus amyloliquefaciens) (UniProt P23940)", "T4 sequence": "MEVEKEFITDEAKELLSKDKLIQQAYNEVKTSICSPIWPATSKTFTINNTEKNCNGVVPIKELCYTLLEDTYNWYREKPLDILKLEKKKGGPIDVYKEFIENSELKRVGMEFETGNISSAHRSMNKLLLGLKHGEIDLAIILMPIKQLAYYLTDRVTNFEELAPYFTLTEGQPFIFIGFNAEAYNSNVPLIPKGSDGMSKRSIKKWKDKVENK", "conditions": "NEB4, 10 mM Mg acetate, 37 C"}, "[6]": {"tested_on": "T5, SspI (Sphaerotilus species)", "T5 sequence": "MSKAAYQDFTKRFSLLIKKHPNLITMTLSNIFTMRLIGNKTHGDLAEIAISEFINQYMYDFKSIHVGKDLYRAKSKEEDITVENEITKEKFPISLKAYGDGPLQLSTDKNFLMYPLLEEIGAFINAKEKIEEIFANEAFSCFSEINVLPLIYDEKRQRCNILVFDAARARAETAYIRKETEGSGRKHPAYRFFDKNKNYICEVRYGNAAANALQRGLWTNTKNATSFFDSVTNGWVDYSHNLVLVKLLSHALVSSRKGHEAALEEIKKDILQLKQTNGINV", "conditions": "NEB1, 10 mM MgCl2, 37 C"}, "[7]": {"tested_on": "T6, NcoI (Nocardia corallina)", "T6 sequence": "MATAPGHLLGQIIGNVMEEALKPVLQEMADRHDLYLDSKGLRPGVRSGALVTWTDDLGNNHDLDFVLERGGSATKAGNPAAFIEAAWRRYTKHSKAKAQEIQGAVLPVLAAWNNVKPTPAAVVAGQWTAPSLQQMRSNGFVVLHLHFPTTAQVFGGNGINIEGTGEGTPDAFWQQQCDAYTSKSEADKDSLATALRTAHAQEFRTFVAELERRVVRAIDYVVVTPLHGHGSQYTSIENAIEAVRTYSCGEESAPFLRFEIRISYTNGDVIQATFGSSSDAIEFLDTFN", "conditions": "NEB1, 10 mM MgCl2, 37 C"}, "[8]": {"molecular_target": "T7, HindIII (Haemophilus influenzae Rd) (UniProt P43870)", "T7 sequence": "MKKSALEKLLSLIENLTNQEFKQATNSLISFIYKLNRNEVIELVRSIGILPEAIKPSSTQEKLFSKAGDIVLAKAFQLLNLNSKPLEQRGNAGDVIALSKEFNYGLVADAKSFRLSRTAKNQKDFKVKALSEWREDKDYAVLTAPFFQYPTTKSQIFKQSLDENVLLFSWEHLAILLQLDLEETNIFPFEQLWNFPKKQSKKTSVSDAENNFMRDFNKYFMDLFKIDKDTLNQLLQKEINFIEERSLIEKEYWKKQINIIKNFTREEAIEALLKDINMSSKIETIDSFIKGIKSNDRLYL", "conditions": "NEB2, 10 mM MgCl2, 37 C"}, "BstXI": {"tested_on": "BstXI", "conditions": "NEB4, 10 mM Mg acetate, 55 C"}, "[9]": {"molecular_target": "T8, HpaI (Haemophilus parainfluenzae) (UniProt P29537)", "T8 sequence": "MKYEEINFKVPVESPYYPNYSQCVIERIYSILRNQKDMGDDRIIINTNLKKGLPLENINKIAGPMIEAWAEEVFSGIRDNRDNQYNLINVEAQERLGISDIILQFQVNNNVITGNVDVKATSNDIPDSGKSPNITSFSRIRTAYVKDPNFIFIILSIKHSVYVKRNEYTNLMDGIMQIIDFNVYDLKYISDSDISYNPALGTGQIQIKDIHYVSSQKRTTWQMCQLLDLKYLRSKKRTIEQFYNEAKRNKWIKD", "conditions": "NEB4, 10 mM Mg acetate, 37 C"}, "[10]": {"tested_on": "T9, SspI-HF Y98F (Sphaerotilus species)", "T9 sequence": "T5 sequence with Y98F", "conditions": "NEB4, 10 mM Mg acetate, 37 C"}}, "note": "Positions count from the first letter of the chain named.", "data": [{"substance": "lambda DNA", "values": [{"measurement": "activity (fidelity index)", "setting": "[1]", "value": 120}, {"measurement": "activity (fidelity index)", "setting": "[2]", "value": 16000}, {"measurement": "activity (fidelity index)", "setting": "[3]", "value": 8000}, {"measurement": "activity (fidelity index)", "setting": "[4]", "value": 32}, {"measurement": "activity (fidelity index)", "setting": "[5]", "value": "> 4000"}, {"measurement": "activity (fidelity index)", "setting": "[6]", "value": 64}, {"measurement": "activity (fidelity index)", "setting": "[7]", "value": 120}, {"measurement": "activity (fidelity index)", "setting": "[8]", "value": 250}, {"measurement": "activity (fidelity index)", "setting": "BstXI", "value": 4}, {"measurement": "activity (fidelity index)", "setting": "[9]", "value": 16}, {"measurement": "activity (fidelity index)", "setting": "[10]", "value": 500}]}]}
